This is an account of results in paper PMC4351158.

Positions count from the first letter of the chain named. Names and notes keep the numbering of the source.

To fix the notation:
B1: DegP S210A (proteolytically inactive variant missing the catalytic serine) (enzyme)
chain: AETSSATTAQQMPSLAPMLEKVMPSVVSINVEGSTTVNTPRMPRNFQQFFGDDSPFCQEGSPFQSSPFCQGGQGGNGGGQQQKFMALGSGVIIDADKGYVVTNNHVVDNATVIKVQLSDGRKFDAKMVGKDPRSDIALIQIQNPKNLTAIKMADSDALRVGDYTVAIGNPFGLGETVTSGIVSALGRSGLNAENYENFIQTDAAINRGNAGGALVNLNGELIGINTAILAPDGGNIGIGFAIPSNMVKNLTSQMVEYGQVKRGELGIMGTELNSELAKAMKVDAQRGAFVSQVLPNSSAAKAGIKAGDVITSLNGKPISSFAALRAQVGTMPVGSKLTLGLLRDGKQVNVNLELQQSSQNQVDSSSIFNGIEGAEMSNKGKDQGVVVNNVKTGTPAAQIGLKKGDVIIGANQQAVKNIAELRKVLDSKPSVLALNIQRGDSTIYLLMQ
modifications: donor or acceptor dye on the trimers in the FRET assay only (site not given)
B2: DegP S210A/R187A (enzyme)
chain: B1 chain with R187A
modifications: donor or acceptor dye on the trimers in the FRET assay only (site not given)
B3: DegP S210A/Q200A (enzyme)
chain: B1 chain with Q200A
modifications: donor or acceptor dye on the trimers in the FRET assay only (site not given)
B4: DegP S210A/T176V (enzyme)
chain: B1 chain with T176V
modifications: donor or acceptor dye on the trimers in the FRET assay only (site not given)

The first experiment addresses fluorescent peptide derived from residues 18-58 of lysozyme. Nature of the experiment: fluorescence polarisation.
Usually Kd stands for a measure of binding affinity in units of concentration. Low readings indicate tighter binding, high ones weaker binding. Take B1: the Kd worked out at 1 µM.

As to B2, the Kd turned out to be 30 µM.

The molecule B3 had a Kd of 30 µM.

B4 gave a Kd of 30 µM.

Another experiment has the same target. Nature of the experiment: fluorescence polarisation. The source holds these as a separate data set. In general terms: Polarisation of emitted light reports the rotation of a fluorescent probe.
Take B2: the Kd was found to be 30 µM.

Molecule B3 yielded an equilibrium dissociation constant (Kd) of 30 µM.

Molecule B4 registered a Kd of 30 µM.
